The record followed here is US12171803B2, “Methods of CD40 and toll like receptor immune activation” (MEMGEN, INC., priority 2017, dated 2024).

The test system of this assay is B16.F10 tumors. Put plainly: Tumor growth of B16.F10 tumors subcutaneously implanted in mice. The class given is in vivo. The following applies: ISF35 combination therapy versus agonist CD40 antibody combination therapy; B16.F10 tumors subcutaneously implanted in C54/BL6 mice. From the text:
Tumor growth curves of B16.F10 tumors subcutaneously implanted in C54/BL6 mice. Individual animal tumor growth curves are shown.

B1: ISF35: chimeric CD154 polypeptide; domain IV of human CD154 linked to domains I, II and III of human CD154; SEQ ID NO 6 (protein)
chain: MIETYNQTSPRSAATGLPISMKIFMYLLTVFLITQMIGSALFAVYLHRRLDKIEDERNLHEDFVFMKTIQRCNTGERSLSLLNCEEIKSQFEGFVKDIMLNKEETKKDEDPQIAAHVVSEANSNAASVLQWAKKGYYTMKSNLVTLENGKQLTVKRQGLYYIYAQVTFCSNREASSQAPFIVGLWLKPSSGSERILLKAANTHSSSQLCEQQSIHLGGVFELQPGASVFVNVTDPSQVSHGTGFTSFGLLKL
modifications: ISF35 (MEM40)
For the molecule B1, the “Tumor growth curves (activity of combination therapy)” value was “Superior activity”.
